Tests used:
[1] = target: T1, human CD8 on CD8+ cells of human PBMCs (human, UniProt P01732 22-235); assay: phage display selection on hCD8a with EDTA elution, then clone screening
T1 construct: whole, on cells; Immunization and panning used recombinant hCD8a (Ser 22-Asp 182, His tag); The flow cytometry used native CD8 on PBMCs; also called hCD8; hCD8a
Procedure: Flow cytometry results of screened clones of library 2a from EDTA eluates after panning cycle IIb with triple depletion of Ca2+ independent hCD8a binders. After exclusion of dead cells and cell debris CD8+ cells were identified as a CD3+/CD4− cell population. hCD8-specific Fabs were detected by anti-polyhistidine-PE (anti-HIS-PE). Mean fluorescence intensities (MFI) of anti-HIS-PE staining were plotted to evaluate the influence of 10 mM EDTA. 75_A1 (uninoculated medium) and 75_C1 (anti-MUC1 scFv expressing clone) were negative controls, while 75_B1 (CD8 BW135/80) served as positive control. FIG. 7: MFI before and after addition of EDTA. FIG. 8: MFI ratio (−)EDTA/(+)EDTA. FIG. 9: Dot plots of clone KRR75_G1 before and after the addition of 10 mM EDTA.
Variations in panning process were tested to direct the selection towards Ca2+ dependent binding. […]
Clones generated by different selection procedures and stages were characterized upon hCD8 specificity and potential Ca2+ dependent binding. […] Supernatants of these cultures were analyzed for the presence hCD8 specific Fabs using a flow cytometric staining assay in the Ca2+ containing buffer HBSS (Hank's balanced salt solution) +0.5% BSA. […] Bound Fabs were detected via the polyhistidine tag of the Fab and an anti-polyhistidine tag-fluorochrome conjugate. […]

[2] = target: T1, human CD8 on CD8+ cells of human PBMCs; assay: flow cytometry on human CD8+ cells, before and after EDTA
Procedure: FIGS. 10, 11, and 12 show flow cytometry results of screened clones after panning cycle IIIb. Flow cytometry results of screened clones (see 4.4.2.2) of library 1a and 2a from EDTA eluates after panning cycle IIIb. After exclusion of dead cells and cell debris CD8+ cells were identified as a CD3+/CD4− cell population. hCD8 specific Fabs were detected by anti-His-PE. Mean fluorescence intensities (MFI) of anti-His-PE staining were plotted to evaluate the influence of 10 mM EDTA on staining with certain Fab clones. 77_A1 (uninoculated medium) and 77_C1 (anti-MUC1 scFv expressing clone) were negative controls, while 77_B1 (CD8 BW135/80) served as positive control for hCD8 staining. FIG. 10: MFI before and after addition of EDTA. FIG. 11: MFI ratio (−)EDTA/(+)EDTA. FIG. 12: Dot plot of clone KRR77_D1 before and after the addition of 10 mM EDTA.
Clones generated by different selection procedures and stages were characterized upon hCD8 specificity and potential Ca2+ dependent binding. Therefore, Fab expressions of single clones were performed in a microtiter plate format (150 μL). Supernatants of these cultures were analyzed for the presence hCD8 specific Fabs using a flow cytometric staining assay in the Ca2+ containing buffer HBSS (Hank's balanced salt solution) +0.5% BSA. […] Bound Fabs were detected via the polyhistidine tag of the Fab and an anti-polyhistidine tag-fluorochrome conjugate. […]

T1 sequence (P01732 22-235): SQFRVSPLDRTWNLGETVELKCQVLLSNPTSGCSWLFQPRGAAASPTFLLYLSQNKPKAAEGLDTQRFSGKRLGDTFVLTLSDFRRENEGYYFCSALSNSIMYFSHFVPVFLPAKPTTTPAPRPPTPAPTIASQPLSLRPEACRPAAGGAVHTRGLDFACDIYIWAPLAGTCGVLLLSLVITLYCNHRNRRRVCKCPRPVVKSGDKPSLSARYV

B1: chimeric recombinant Fab CD8 KRR75_G1 (Fab, V domains shown)
VH: EVQLQQSGPELVKPGASVKMSCKASGYTFTDYVISWMKQRTGQGLEWIGEIYPGSGSDYYNEKFKGKATLTADKSSNTAYMQLSSLTSEDSAVYFCARWGITDYFDVWGAGTTVTVSS
VL: ETTVTQSPASLSMAIGEKVTIRCITSTDIDDDMNWYQQKPGEPPKLLISEGNTLRPGVPSRFSSSGYGTDFVFTIENMLSEDVADYYCLQSDNLPFTFGSGTKLEIK
notes: also called clone KRR75_G1
binding result [1]: binds

B2: chimeric recombinant Fab CD8 KRR77_D1 (Fab, V domains shown)
VH: QVQLKESGPGLVQPSQSLSITCTVSGFSLTSYGVHWVRQSPGKGLEWLGVIWRGGSTDYNAAFMSRLSITKDNSKSQVFFKMNSLQADDTAIYYCAKNSITPFAYWGQGTLVTVSA
VL: B1 VL
notes: also called clone KRR77_D1
binding result [2]: binds
